B1: IRF5-CPP1 (peptide)
peptide: Ac-IRLQISNPYLKFIPLKRAIWLIK-NH2

Assays:
IRF5 [1] = biological target: T1, IRF5 (Homo sapiens, UniProt Q13568); assay type: cell-based
endogenous IRF5 = endogenous IRF5 (Homo sapiens, UniProt Q13568); assay type: cell-based
IRF5 [2] = biological target: T1, IRF5; assay type: cell-based; remark: listed apart in the source
IRF5 [3] = biological target: T1, IRF5; assay type: cell-based; remark: listed apart in the source
[4] = biological target: wild-type (WT) IRF5, tagged with either His or biotin at the C terminus (human); assay: FRET or BRET
[5] = biological target: IRF5 [change], tagged with either His or biotin (human); assay: FRET or BRET

Molecule	effect on R848-induced IRF5 homodimerization (IRF5 [1])	in-cell FRET signal with TRITC-IRF5 (endogenous IRF5)	inhibition of R848-induced IRF5 nuclear translocation in CD14+ monocytes (IRF5 [2])	inhibition of R848-induced IRF5 nuclear translocation in CD19+ B cells (IRF5 [3])	Kd [4] [µM]	IC50 [5] [µM]
IRF5-CPP9: Negative control for IRF5-CPP5; lacks the IRF5-specific sequences (MANLGYWLLALFVTMWTDVGLCKKRPKP)	Neither of these two peptides inhibited	minimal FRET signal	neither peptide provided IRF5-specific inhibition	neither peptide provided IRF5-specific inhibition		
Ac-IKVMWPILFIIKLVHSDKKI-NH2 [IRF5-CPP8]	Neither of these two peptides inhibited	minimal FRET signal	neither peptide provided IRF5-specific inhibition	neither peptide provided IRF5-specific inhibition		
wild-type (WT) IRF5, tagged with either His or biotin at the C terminus (natural protein)					4.21	
B1						> 75

Reference: article PMC7228753 (Science Advances, 2020)
